# Tests used:
# HSP70 protein [1] = target: T1, HSP70 protein (human, UniProt P0DMV8 1-641, limits assumed); test: IP of H460 cell lysate with Hsp70 antibody, western blot
# T1 construct: Untagged HSP70: endogenous in H460 and 293T cells (co-IP, western blot with HSP70 antibody) and the purified protein fixed on the SPR chip; The construct of the purified protein is not described; also called heat shock protein 70; endogenous HSP70
# Method: H460 cells were treated with […] (EGF (Peprotech)) for 30 minutes, and then lysed with IP buffer (50 mM Tris (pH7.4), 100 mM NaCl, 10% Glycerol, 1 mM EDTA, 0.5% TritonX-100, PBS) at 4° C. for 30 minutes. […] Actin (Sigma) means loading control, and WCL means whole cell lysate.
# GFP-HSP70 = target: T2, GFP-HSP70 (human, UniProt P0DMV8 1-641); test: confocal microscopy of 293T cells overexpressing both
# T2 construct: Overexpressed in 293T or H460 cells; order of the parts as in the printed name; also called GFP-HSP70 full; not shown: GFP
# T2 sequence (P0DMV8 whole entry): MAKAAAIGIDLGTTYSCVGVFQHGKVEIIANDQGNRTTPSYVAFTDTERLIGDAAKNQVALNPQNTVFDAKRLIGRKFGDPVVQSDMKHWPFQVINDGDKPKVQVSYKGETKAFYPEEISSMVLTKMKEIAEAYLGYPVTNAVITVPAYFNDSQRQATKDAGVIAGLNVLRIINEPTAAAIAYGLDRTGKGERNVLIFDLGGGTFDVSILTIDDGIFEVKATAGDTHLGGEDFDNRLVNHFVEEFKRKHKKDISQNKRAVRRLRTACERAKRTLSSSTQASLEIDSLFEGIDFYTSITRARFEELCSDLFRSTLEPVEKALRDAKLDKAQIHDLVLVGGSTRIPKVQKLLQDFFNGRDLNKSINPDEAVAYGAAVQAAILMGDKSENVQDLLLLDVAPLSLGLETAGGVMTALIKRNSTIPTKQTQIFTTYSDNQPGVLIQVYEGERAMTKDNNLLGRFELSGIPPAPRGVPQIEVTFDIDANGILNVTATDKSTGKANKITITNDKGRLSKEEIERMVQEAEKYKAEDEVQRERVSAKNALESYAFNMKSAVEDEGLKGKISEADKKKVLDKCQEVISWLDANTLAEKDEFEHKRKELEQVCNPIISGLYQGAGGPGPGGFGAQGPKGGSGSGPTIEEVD
# Method: After EGF treatment, the cells were washed 3 times with cold PBS, and were fixed with cold methanol for 10 minutes. After fixation, the cells were washed 3 times with cold PBS, and nuclei were stained with DAPI (Invitrogen) solution. After staining, each fluorescence was observed using confocal microscopy.
# HSP90B1 = target: T3, HSP90B1 (UniProt P14625 22-803); test: strep-tag column pull-down from 293T lysate, LC-mass spectrometry
# T3 construct: Identified by mass spectrometry of tryptic peptides
# T3 sequence (P14625 22-803 limits assumed): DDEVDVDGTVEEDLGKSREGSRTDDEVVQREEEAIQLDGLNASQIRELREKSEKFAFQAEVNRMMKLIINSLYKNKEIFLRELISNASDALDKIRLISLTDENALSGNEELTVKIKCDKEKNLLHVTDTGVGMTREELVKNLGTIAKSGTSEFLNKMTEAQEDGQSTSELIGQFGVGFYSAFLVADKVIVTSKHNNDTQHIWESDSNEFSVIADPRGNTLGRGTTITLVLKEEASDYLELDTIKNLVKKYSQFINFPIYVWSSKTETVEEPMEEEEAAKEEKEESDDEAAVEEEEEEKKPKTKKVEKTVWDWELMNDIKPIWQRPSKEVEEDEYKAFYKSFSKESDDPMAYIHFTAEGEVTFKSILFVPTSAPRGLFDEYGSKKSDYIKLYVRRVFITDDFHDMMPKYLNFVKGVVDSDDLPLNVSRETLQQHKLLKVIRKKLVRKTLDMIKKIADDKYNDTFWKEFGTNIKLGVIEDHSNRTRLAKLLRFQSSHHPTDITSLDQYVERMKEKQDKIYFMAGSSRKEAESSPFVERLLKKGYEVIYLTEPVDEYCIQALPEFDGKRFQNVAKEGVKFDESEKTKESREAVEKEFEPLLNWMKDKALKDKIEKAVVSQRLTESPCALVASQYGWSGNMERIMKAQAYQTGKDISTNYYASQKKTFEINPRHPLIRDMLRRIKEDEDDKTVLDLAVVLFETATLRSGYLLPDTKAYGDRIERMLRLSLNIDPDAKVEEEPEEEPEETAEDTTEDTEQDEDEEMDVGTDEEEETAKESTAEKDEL
# Method: (§1) Separated proteins were degraded to their peptide levels by in-gel digestion using trypsin (Hyclone), and these peptides were analyzed by LC-mass spectrometry (Thermo) (FIG. 1A).
# (§2) Cell lysis was performed by incubating at 4° C. for 30 min with an appropriate amount of lysis buffer (50 mM Tris(pH7.4), 100 mM NaCl, 10% Glycerol, 1 mM EDTA, 0.5% TritonX-100, PBS). And, lysed cell lysate was centrifuged at 13,200 rpm for 15 minutes. After […] the supernatant from the cell lysate, the supernatant was passed through a strep-tag column (thermo). After passing the supernatant, the proteins bound to the column were eluted by using elution buffer, and then the collected proteins were separated by SDS-PAGE.
# HSP70 protein [2] = target: T1, HSP70 protein; test: strep-tag column IP of 293T lysate overexpressing Strep-AIMP2-DX2, western blot
# Method: After the cells were lysed in the same manner as described above, IP was performed using a Strep-tag column (GE Helathcare).
# HSPA5 = target: T4, HSPA5 (UniProt P11021 19-654); test: strep-tag column pull-down from 293T lysate, LC-mass spectrometry
# T4 construct: Identified by mass spectrometry of tryptic peptides
# T4 sequence (P11021 19-654 limits assumed): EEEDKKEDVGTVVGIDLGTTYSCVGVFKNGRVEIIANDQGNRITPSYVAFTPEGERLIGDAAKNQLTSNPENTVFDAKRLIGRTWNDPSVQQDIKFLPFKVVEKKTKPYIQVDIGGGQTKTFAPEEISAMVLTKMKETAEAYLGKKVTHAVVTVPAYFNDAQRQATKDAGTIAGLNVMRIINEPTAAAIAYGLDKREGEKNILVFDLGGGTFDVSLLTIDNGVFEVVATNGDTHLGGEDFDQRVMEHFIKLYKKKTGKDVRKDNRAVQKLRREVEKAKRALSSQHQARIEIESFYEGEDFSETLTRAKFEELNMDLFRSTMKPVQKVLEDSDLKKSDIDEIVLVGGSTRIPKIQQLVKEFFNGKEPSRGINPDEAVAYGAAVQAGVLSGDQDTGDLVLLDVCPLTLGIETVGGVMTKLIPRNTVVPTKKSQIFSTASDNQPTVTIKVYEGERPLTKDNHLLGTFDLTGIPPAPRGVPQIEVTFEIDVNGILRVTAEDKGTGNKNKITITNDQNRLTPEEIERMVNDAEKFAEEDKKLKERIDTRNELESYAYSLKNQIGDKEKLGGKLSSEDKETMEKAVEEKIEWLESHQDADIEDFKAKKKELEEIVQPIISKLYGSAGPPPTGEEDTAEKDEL
# Method: as §1, §2
# HSPA1L = target: T5, HSPA1L (UniProt P34931 1-641); test: as above
# T5 construct: Identified by mass spectrometry of tryptic peptides
# T5 sequence (P34931 whole entry): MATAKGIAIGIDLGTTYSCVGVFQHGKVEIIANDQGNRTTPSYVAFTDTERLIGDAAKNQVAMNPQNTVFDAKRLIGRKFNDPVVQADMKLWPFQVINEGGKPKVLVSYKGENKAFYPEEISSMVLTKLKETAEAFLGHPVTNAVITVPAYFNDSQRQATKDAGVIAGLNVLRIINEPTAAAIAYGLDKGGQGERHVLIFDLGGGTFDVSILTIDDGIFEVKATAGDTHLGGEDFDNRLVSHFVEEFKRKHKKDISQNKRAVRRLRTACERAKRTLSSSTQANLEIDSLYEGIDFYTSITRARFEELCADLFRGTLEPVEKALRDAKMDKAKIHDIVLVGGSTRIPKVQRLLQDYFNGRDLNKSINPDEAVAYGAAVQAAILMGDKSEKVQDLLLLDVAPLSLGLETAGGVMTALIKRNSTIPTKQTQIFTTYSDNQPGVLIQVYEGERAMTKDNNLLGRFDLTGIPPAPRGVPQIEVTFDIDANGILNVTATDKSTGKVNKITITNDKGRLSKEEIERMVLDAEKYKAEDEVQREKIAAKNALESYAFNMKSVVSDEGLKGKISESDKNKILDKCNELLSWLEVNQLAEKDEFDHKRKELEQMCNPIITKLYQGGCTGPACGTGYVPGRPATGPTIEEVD
# Method: as §1, §2
# HSPA2 = target: T6, HSPA2 (UniProt P54652 1-639); test: as above
# T6 construct: Identified by mass spectrometry of tryptic peptides
# T6 sequence (P54652 whole entry): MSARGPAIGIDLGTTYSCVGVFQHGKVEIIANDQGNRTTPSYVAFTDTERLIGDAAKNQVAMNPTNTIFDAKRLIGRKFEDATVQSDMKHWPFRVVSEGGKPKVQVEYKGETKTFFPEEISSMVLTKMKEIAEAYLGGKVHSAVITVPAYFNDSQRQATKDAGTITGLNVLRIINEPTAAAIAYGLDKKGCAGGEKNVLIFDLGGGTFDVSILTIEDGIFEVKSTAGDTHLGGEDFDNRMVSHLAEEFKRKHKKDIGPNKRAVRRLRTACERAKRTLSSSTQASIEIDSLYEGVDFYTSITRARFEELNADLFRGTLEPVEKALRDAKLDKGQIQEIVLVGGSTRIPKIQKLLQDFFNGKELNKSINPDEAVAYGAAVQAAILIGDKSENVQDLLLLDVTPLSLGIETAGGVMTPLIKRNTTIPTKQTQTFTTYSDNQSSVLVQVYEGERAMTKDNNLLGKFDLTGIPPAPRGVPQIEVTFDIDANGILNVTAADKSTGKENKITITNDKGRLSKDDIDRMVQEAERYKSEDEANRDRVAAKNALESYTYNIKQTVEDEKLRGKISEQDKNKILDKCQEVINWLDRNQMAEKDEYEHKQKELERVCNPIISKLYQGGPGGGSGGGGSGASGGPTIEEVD
# Method: as §1, §2
# HSPA9 = target: T7, HSPA9 (UniProt P38646 47-679); test: as above
# T7 construct: Identified by mass spectrometry of tryptic peptides
# T7 sequence (P38646 47-679 limits assumed): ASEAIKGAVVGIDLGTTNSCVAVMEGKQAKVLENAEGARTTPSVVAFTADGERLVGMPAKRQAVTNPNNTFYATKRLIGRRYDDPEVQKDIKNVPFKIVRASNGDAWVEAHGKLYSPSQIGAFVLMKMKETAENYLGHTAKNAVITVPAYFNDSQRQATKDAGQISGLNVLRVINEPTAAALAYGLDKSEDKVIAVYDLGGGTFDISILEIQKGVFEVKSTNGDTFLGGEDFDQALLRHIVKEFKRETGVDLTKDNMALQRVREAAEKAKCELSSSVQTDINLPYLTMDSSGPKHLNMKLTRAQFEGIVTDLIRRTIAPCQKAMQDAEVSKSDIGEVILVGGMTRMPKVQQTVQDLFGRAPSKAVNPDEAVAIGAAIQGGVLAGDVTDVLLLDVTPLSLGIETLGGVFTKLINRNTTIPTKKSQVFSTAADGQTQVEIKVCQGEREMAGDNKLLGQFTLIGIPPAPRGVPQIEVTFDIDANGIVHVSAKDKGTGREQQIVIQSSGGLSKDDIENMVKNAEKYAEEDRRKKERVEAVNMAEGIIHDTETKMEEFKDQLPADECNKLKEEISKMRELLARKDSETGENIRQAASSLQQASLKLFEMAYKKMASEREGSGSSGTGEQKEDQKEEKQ
# Method: as §1, §2
# T1 sequence (P0DMV8 whole entry): as the sequence (P0DMV8 whole entry) above
binder,measurement,setting,value
"AIMP2-DX2 protein (other, Untagged AIMP2-DX2: endogenous in H460 cells (IP with Hsp70 antibody) and the purified protein flowed in SPR) MPMYQVKPYHGGGAPLRVELPTCMYRLPNVHGRSYGPAPGAGHVQDYGALKDIVINANPASPPLSLLVLHRLLCEHFRVLSTVHTHSSVKSVPENLLKCFGEQNKKQPRQDYQLGFTLIWKNVPKTQMKFSIQTMCPIEGEGNIARFLFSLFGQKHNAVNATLIDSWVDIAIFQLKEGSSKEKAAVFRSMNSALGKSPWLAGNELTVADVVLWSVLQQIGGCSVTVPANVQRWMRSCENLAPFNTALKLLK",binding result,HSP70 protein [1],binds
"RFP-AIMP2-DX2 (other, Overexpressed in 293T cells; order of the parts as in the printed name; not shown: RFP) MPMYQVKPYHGGGAPLRVELPTCMYRLPNVHGRSYGPAPGAGHVQDYGALKDIVINANPASPPLSLLVLHRLLCEHFRVLSTVHTHSSVKSVPENLLKCFGEQNKKQPRQDYQLGFTLIWKNVPKTQMKFSIQTMCPIEGEGNIARFLFSLFGQKHNAVNATLIDSWVDIAIFQLKEGSSKEKAAVFRSMNSALGKSPWLAGNELTVADVVLWSVLQQIGGCSVTVPANVQRWMRSCENLAPFNTALKLLK",binding result,GFP-HSP70,binds
"Strep-AIMP2-DX2 (other, Overexpressed in 293T cells; The tag is put first as in the printed name; also called Strep-DX2; exogenous AIMP2-DX2; not shown: Strep tag from the pEXPR-IBA5 vector) MPMYQVKPYHGGGAPLRVELPTCMYRLPNVHGRSYGPAPGAGHVQDYGALKDIVINANPASPPLSLLVLHRLLCEHFRVLSTVHTHSSVKSVPENLLKCFGEQNKKQPRQDYQLGFTLIWKNVPKTQMKFSIQTMCPIEGEGNIARFLFSLFGQKHNAVNATLIDSWVDIAIFQLKEGSSKEKAAVFRSMNSALGKSPWLAGNELTVADVVLWSVLQQIGGCSVTVPANVQRWMRSCENLAPFNTALKLLK",binding result,HSP90B1,no binding
same,binding result,HSP70 protein [2],binds
"AIMP2 (other, UniProt Q13155 1-320, looked up, Endogenous protein in H460 cell lysate; also called p38/JTV-1) MPMYQVKPYHGGGAPLRVELPTCMYRLPNVHGRSYGPAPGAGHVQEESNLSLQALESRQDDILKRLYELKAAVDGLSKMIQTPDADLDVTNIIQADEPTTLTTNALDLNSVLGKDYGALKDIVINANPASPPLSLLVLHRLLCEHFRVLSTVHTHSSVKSVPENLLKCFGEQNKKQPRQDYQLGFTLIWKNVPKTQMKFSIQTMCPIEGEGNIARFLFSLFGQKHNAVNATLIDSWVDIAIFQLKEGSSKEKAAVFRSMNSALGKSPWLAGNELTVADVVLWSVLQQIGGCSVTVPANVQRWMRSCENLAPFNTALKLLK",binding result,HSP70 protein [1],no binding
"strep-AIMP2 (other, UniProt Q13155 1-320, looked up, Overexpressed in 293T cells; not shown: Strep tag from the pEXPR-IBA5 vector) MPMYQVKPYHGGGAPLRVELPTCMYRLPNVHGRSYGPAPGAGHVQEESNLSLQALESRQDDILKRLYELKAAVDGLSKMIQTPDADLDVTNIIQADEPTTLTTNALDLNSVLGKDYGALKDIVINANPASPPLSLLVLHRLLCEHFRVLSTVHTHSSVKSVPENLLKCFGEQNKKQPRQDYQLGFTLIWKNVPKTQMKFSIQTMCPIEGEGNIARFLFSLFGQKHNAVNATLIDSWVDIAIFQLKEGSSKEKAAVFRSMNSALGKSPWLAGNELTVADVVLWSVLQQIGGCSVTVPANVQRWMRSCENLAPFNTALKLLK",binding result,HSPA5,no binding
same,binding result,HSPA1L,no binding
same,binding result,HSPA2,no binding
same,binding result,HSPA9,no binding

# Source: patent US20190033295A1 (MEDICINAL BIOCONVERGENCE RESEARCH CENTER, published 2019)
